From PMC8094900

Key:
[1] = biological target: Myrf N-terminal fragment (wild-type mouse Myrf) (mouse); experiment: cold western blot (SDS-PAGE in a cold chamber); N-terminally Flag-tagged Myrf constructs expressed in Oli-neu cells; SDS-PAGE in a cold condition, membrane probed with Flag antibodies; ratio of trimeric to monomeric N-terminal fragment
[2] = biological target: Myrf-F387S N-terminal fragment; experiment: cold western blot (cold SDS-PAGE, Flag immunoblot); conditions: Flag-tagged constructs expressed in Oli-neu cells; SDS-PAGE in a cold condition; parent: est. 0.27; read off a plot
[3] = biological target: Myrf-G435R N-terminal fragment; experiment: cold western blot (cold SDS-PAGE, Flag immunoblot); conditions: Flag-tagged constructs expressed in Oli-neu cells; SDS-PAGE in a cold condition; parent: est. 0.27; read off a plot
[4] = biological target: Myrf-L479V N-terminal fragment; experiment: cold western blot (cold SDS-PAGE, Flag immunoblot); conditions: Flag-tagged constructs expressed in Oli-neu cells; SDS-PAGE in a cold condition; parent: est. 0.27; read off a plot
[5] = biological target: Myrf-Q403H N-terminal fragment; experiment: cold western blot (cold SDS-PAGE, Flag immunoblot); conditions: Flag-tagged constructs expressed in Oli-neu cells; SDS-PAGE in a cold condition; parent: est. 0.27; read off a plot

Myrf N-terminal fragment (wild-type mouse Myrf), sequence (Q3UR85 whole entry, the tested form may be a part): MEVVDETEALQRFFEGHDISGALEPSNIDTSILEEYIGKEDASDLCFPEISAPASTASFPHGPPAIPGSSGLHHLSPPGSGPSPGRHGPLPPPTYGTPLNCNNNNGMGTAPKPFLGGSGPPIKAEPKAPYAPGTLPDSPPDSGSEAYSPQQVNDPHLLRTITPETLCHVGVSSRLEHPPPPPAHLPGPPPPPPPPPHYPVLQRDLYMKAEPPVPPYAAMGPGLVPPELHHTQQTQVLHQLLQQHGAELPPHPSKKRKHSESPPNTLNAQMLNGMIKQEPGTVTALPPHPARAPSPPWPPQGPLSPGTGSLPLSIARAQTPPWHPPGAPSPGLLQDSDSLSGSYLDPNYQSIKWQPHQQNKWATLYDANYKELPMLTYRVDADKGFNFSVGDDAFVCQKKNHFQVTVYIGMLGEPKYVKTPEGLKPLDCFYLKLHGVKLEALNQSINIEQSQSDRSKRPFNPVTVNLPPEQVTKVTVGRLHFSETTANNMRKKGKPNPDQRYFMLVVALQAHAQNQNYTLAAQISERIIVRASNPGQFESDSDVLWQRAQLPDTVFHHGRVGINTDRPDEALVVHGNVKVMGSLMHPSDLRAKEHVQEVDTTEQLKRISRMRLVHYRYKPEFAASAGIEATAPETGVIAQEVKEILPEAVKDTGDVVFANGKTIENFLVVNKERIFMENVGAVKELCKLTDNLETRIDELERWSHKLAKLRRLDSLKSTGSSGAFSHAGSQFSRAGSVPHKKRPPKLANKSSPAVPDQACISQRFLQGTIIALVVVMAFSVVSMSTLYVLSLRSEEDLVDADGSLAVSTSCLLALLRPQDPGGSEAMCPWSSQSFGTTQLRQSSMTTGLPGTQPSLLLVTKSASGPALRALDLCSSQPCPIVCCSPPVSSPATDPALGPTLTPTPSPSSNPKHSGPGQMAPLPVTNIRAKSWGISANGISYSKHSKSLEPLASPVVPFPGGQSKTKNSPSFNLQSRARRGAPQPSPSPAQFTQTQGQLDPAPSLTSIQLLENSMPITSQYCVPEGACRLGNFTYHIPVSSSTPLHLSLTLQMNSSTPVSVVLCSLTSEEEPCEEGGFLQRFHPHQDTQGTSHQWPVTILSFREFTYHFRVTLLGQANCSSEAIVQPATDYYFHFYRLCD

Q: Which stoichiometry N [1] does the source give for “Myrf N-terminal fragment (wild-type mouse Myrf) (domain or fragment)” here?
A: The stoichiometry N was 3.

Q: Which other: Trimer/(Trimer+Monomer) [2] does the source give for “Myrf N-terminal fragment (wild-type mouse Myrf) F387S” here?
A: The other: Trimer/(Trimer+Monomer) was 0.045.

Q: For “Myrf N-terminal fragment (wild-type mouse Myrf) G435R”, which other: Trimer/(Trimer+Monomer) [3] is on record?
A: The other: Trimer/(Trimer+Monomer) was 0.02.

Q: “Myrf N-terminal fragment (wild-type mouse Myrf) L479V” was tested. Which other: Trimer/(Trimer+Monomer) [4] did it give?
A: The other: Trimer/(Trimer+Monomer) was 0.01.

Q: Which other: Trimer/(Trimer+Monomer) [5] does the source give for “Myrf N-terminal fragment (wild-type mouse Myrf) Q403H” here?
A: Its other: Trimer/(Trimer+Monomer) is 0.08.
